Here are results for 7 sequences from the supplement of paper PMC12455559.

The nature of data set [1]: purified protein yield per well (BCA); higher = higher soluble expression. A digest of the protocol:
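Candidate enzymes were expressed in E. coli C41(DE3) in 2 mL autoinduction cultures with 100 µg/mL kanamycin, at 37 °C for 2 h and then 18 °C for 40 h. Cells were lysed, and protein was bound to Ni-charged magnetic beads and released by SUMO protease cleavage on an OT-2 robot. The read-out is purified protein yield per well, measured with the Pierce Rapid Gold BCA kit. Values below 25 ug (0.1 mg/mL) are below the detection threshold.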

Data set [2] can be described thus: melting temperature (DSF); higher = more thermostable. A digest of the protocol:
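On a Bio-Rad CFX96, fluorescence of 45 μL enzyme (0 to 0.3 mg/mL) mixed with 5 μL 5X Sypro Orange in sealed PCR plates was followed from 25 °C through 250 cycles of 0.3 °C, with a 0.3 °C/s ramp. The enzymes had been expressed in E. coli C41(DE3), taken up on nickel beads and released by SUMO protease. Melting temperature, measured by differential scanning fluorimetry, is the value given.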

The nature of data set [3]: PET hydrolysis, aromatic products released after 48 h (umol product/mg enzyme); higher = more PET depolymerization activity. In outline:
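The measure of PET hydrolysis activity is aromatic product released into the supernatant, given per mg enzyme. Nickel-purified, SUMO-cleaved enzyme without tag was added at 5 μg (50 μL) to 3.5 mg amorphous PET film or crystalline PET powder in 450 μL of citrate, phosphate or glycine buffer spanning pH 4.5 to 8.5. After 48 h at 40 or 60 °C in sealed plates without shaking, absorbance at 260 and 280 nm was taken against buffer blanks.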

Where [4] appears, read: substrate: cryPow, 40 °C, pH 4.5.
The mark [5] stands for this setting: substrate: cryPow, 40 °C, pH 5.5.
Setting [6] is: substrate: cryPow, 40 °C, pH 6.5.
Where [7] appears, read: substrate: cryPow, 40 °C, pH 7.5.
[8] abbreviates: substrate: cryPow, 60 °C, pH 4.5.
The mark [9] stands for this setting: substrate: cryPow, 60 °C, pH 5.5.
Where [10] appears, read: substrate: cryPow, 60 °C, pH 6.5.
[11] abbreviates: substrate: cryPow, 60 °C, pH 7.5.
The mark [12] stands for this setting: substrate: cryPow, 40 °C, pH 8.5.
The mark [13] stands for this setting: substrate: aFilm, 40 °C, pH 4.5.
[14] abbreviates: substrate: aFilm, 40 °C, pH 5.5.
Where [15] appears, read: substrate: aFilm, 40 °C, pH 6.5.
Where [16] appears, read: substrate: aFilm, 40 °C, pH 7.5.
The mark [17] stands for this setting: substrate: aFilm, 60 °C, pH 4.5.
[18] abbreviates: substrate: aFilm, 60 °C, pH 5.5.
[19] abbreviates: substrate: aFilm, 60 °C, pH 6.5.
[20] abbreviates: substrate: aFilm, 60 °C, pH 7.5.

± gives the standard deviation of the averaged measurements.

“ADNPYQRGPAPTAASIAADRGPFATAQVTVPRGNGFGGGVIYYPTDTSQGTFGAIAIAPGFGTAWSYYAWQGPRLASFGFVVIGIETNTLNDYADARAAQLLAALDYLVNSSSVRDRVDRNRLAVGGHSMGGGGAILAANQRPSLLTAVGQAPYVPDGSLSGIKSPTIIFAGQADGTVTPQYAQNAYNTIPGSVERAYVEIANEGHGFPAGGGGGNSGAFARTMMVWLKLFVDKDTRYAPFLCPSLTNANGISKYMASCPLDPPGGGPTASPTSTPTSTPTSTPTSTPTGTPPAGGTSALRGVASGRCLDVNGASQANGATVLIWDCNGQNNQKWTSTSAGELRVYGNKCLDVNGGGTADGSAVIIWDCNGQSNQKWRLNSDGSITAVGANKCLDVSGNGTANGTRVQIWSCTGGTNQKWTRV [ESM010]”: in data set [1], the “purified protein yield per well” value worked out at 79.7 µg. In data set [2], the melting temperature was 64.6 C. In addition, the PET hydrolysis is < 3 in data set [3] (setting [4]); 3 in data set [3] (setting [5]); 4 in data set [3] (setting [6]); 5 in data set [3] (setting [7]); < 3 in data set [3] (setting [8]); < 3 in data set [3] (setting [9]). Further, the PET hydrolysis in data set [3] (setting [10]) and in data set [3] (setting [11]) was < 3 each time.

As to “AENPHQRGPNPTVAALEAAAGPFAVAKVSVPGGHGFGGGTITYPTDTSQGTFGAVAVSPGFIESEGAIAWFGPRLASHGFVVITISTNGLFDQPDARGAQLLAALDYVTKSSAVRDRVDPARLAVMGHSMGGGGALYATAQRPALKASIPLLAWSNTKSWGSVRVPTMVIGAENDFIASVGSHSEPFYQSLGGEKAYLEMNDADHFVTNSPTPTVGKLTVSWLKRFMDNDTRYDQFLCPAPPVGGPISEYRDTCPYI [DP017]”, the “purified protein yield per well” value in data set [1] was 30 µg. This sequence also registered a melting temperature in data set [2] of 49.6 C. Besides, the PET hydrolysis in data set [3] (setting [5]) was 4; in data set [3] (setting [6]) it was 11; in data set [3] (setting [7]), 13; in data set [3] (setting [12]), 6.

In the case of “ASPYERGPDPTDSILEASRGPFATSQLSVSSLSVSGFGGGTVYYPTDTSQGTFGAIAISPGYTARWSSLAWLGPRIASHGFVVIGIETNTIYDQPASRGRQLLAALDYLTSSSPSTVRSRIDASRLAVAGHSMGGGGTLEAANDRPSLQAAVPLAPWNLTKIWSGVRVPTMIIGGEADTVAPVASHSEPFYQSIPSSVEKAYLELNNASHFFPQTTNTTMAKSMVAWLKRFVDDDTRYDQFLCPAPRGLAIQEYRDTCPIS [TEP144]”, the “purified protein yield per well” value in data set [1] came out at 32.6 µg. In data set [2], this sequence returned a melting temperature of 46.6 C. For the same sequence, the PET hydrolysis in data set [3] (setting [4]), in data set [3] (setting [5]), in data set [3] (setting [6]) and in data set [3] (setting [7]) was < 3 in each case.

Take “AASPYERGPDPTEQTITAERGPFQVATATVPANSASGFNRGTIYYPTDTSQGTFGAVAIIPGFIEPESTMSWYGPRLASQGFVVFTLEPFSVLNFPDDRANQLLAALDYLTGSSSVRSRVDASRLAVMGHSMGGGGTLRAAEMRPSLQAAIPLAPWHLHGDWRNVRVPTMIQAADNDFIAGVGNHAQPFYQNLTNAPEKAYLLFENYGHMSWISANTPIAKYSIAWLKRYVDDDTRYSKFLCPAPGAPSSTFQEYRHTCPD [DP044]”: in data set [1], the “purified protein yield per well” value came out at 28 µg. This sequence displayed a melting temperature in data set [2] of 69.4 C. Also, the PET hydrolysis in data set [3] (setting [5]), in data set [3] (setting [6]), in data set [3] (setting [7]) and in data set [3] (setting [12]) was < 3 in each case.

As for “MLGALAIVGGTRPATGADNPYQRGPDPTPASVSAGRGTFATAQVSVGAGNGFGGGVIYYPTDTSQGTFGAIAVVPGYTATWAAEGAWMGHWLASYGFVVIGIDTNTRNDWDTARGTQLLAALDYLTQRSSVRDRVDATRTAVMGHSMGGGGAAYASLQRPSLKTSVGLAPFSPSQNLTTTRVPTMLLSGQNDGTVTPSSVQNLYNGIPAGVEKAYLELTGAGHGFPTSNNPTMMRTVIPWFKIFVDSDTRYTQFLCPLADSNGIRTYQSTCPLVPSTPPTTTTTPTSTTTTSTTSTTPTTTTTTPQPGGACSATYRTVNSWSGGYQGEVTVTAGTSAVTGWTVRWSLGSGQTISQVWNGTLTVDGPTASVRNVSYNGSLGANASTTFGFIGGGTPPTSTLSCTSP [ESM006]”, in data set [1], the “purified protein yield per well” value was 577 µg. In data set [2], this sequence displayed a melting temperature of 63.1 C. The PET hydrolysis in data set [3] (setting [13]), in data set [3] (setting [14]), in data set [3] (setting [15]), in data set [3] (setting [16]), in data set [3] (setting [17]) and in data set [3] (setting [18]) was < 3 in each case. Besides, the PET hydrolysis was < 3 in data set [3] (setting [19]); < 3 in data set [3] (setting [20]); < 3 in data set [3] (setting [4]); 6.5 ± 0.71 in data set [3] (setting [5]); 13 ± 1.4 in data set [3] (setting [6]); 17.5 ± 6.4 in data set [3] (setting [7]). The PET hydrolysis in data set [3] (setting [8]), in data set [3] (setting [9]), in data set [3] (setting [10]) and in data set [3] (setting [11]) was < 3 throughout.

With “ADNPYERGPDPTESSIEASRGPFAVSQTTVSSLAVTGFGGGTIYYPTDTSQGTFGAVAISPGYTADQSSIAWIGPRLASQGFVVFTIDTITRYDQPASRGDQLLAALDYLTQRSSVRGRIDSSRLGVAGHSMGGGGTLEAAEERPSLQAAVPLAPWNLQKNFSGVRVPTFIIGGESDTVAPVATHSEPFYTSLPSTLDKAYMELNNASHFFPNTPNTTMAKYMISWFKRFIDDDTRYDQFLCPNPSGLAIEEYRSTCPY [TEP089]”, the “purified protein yield per well” value in data set [1] came out at 105 µg. The sequence further registered a melting temperature in data set [2] of 44.2 C. Further, the PET hydrolysis in data set [3] (setting [4]), in data set [3] (setting [5]), in data set [3] (setting [6]), in data set [3] (setting [7]), in data set [3] (setting [8]) and in data set [3] (setting [9]) was < 3 in each case. Also, the PET hydrolysis in data set [3] (setting [10]) and in data set [3] (setting [11]) was < 3 in each case.

On to “ADNPYERGPDPTRTSVATERGPFANTSVSVPTGYGFNGGRIYYPTDTSQGTFGAIAISPGYTALFSAELAWMGPWLASHGFVVIGIETNSRNDFDTARGTQLLAALDYLTQQSPVRDRVDASRLAVAGHSMGGGGALSAATRRPALKAAVGITPFSPSSNLANDRVPTMVISGQADTVVTPSYALDLYNSLPSTTESVYVEVAGGDHGFMVGRSNPVMIRTMLPFLKIFVDNDARYSQFLCPLMDNSGVVTYRSTCPLINTPTTPPPTSPPPTSPPPTSPPPTTPPPGSATQIVGVQSNRCIDVPNSSRNNGTRVQLYDCHGQTNQAWTYTANKQLQVYGNMCLDAAGTGNGAAVQIYSCHGGANQQWNVNSNGTISGVQSGRCLDVWSTSNGAQVQLYDCHGGTNQRFNLVAR [TEP082]”, for which the “purified protein yield per well” value in data set [1] worked out at 282 µg. This sequence also showed a melting temperature in data set [2] of 63.1 C. The PET hydrolysis in data set [3] (setting [13]), in data set [3] (setting [14]), in data set [3] (setting [15]), in data set [3] (setting [16]), in data set [3] (setting [17]) and in data set [3] (setting [18]) was < 3 in each case. Moreover, the PET hydrolysis in data set [3] (setting [19]) was < 3; in data set [3] (setting [20]), < 3; in data set [3] (setting [4]) it was 6.5 ± 0.71; in data set [3] (setting [5]), 15 ± 1.4; in data set [3] (setting [6]), 39.5 ± 2.1; in data set [3] (setting [7]), 34 ± 1.4. Besides, the PET hydrolysis in data set [3] (setting [8]) was < 3; in data set [3] (setting [9]), 2 ± 2.8; in data set [3] (setting [10]) it was 6 ± 1.4; in data set [3] (setting [11]), 3.5 ± 0.71.
